Like-named read-outs stand apart in the source and are kept apart here.
How the values were obtained:
[1] = system: patients with metastatic urothelial cancer (mUC)
Protocol: Endpoints included safety, investigator-evaluated objective response rate (ORR per RECIST 1.1), clinical benefit rate, duration of response (DOR), progression-free survival (PFS), and overall survival (OS). Sequencing analysis of differentially mutated and expressed genes and pathways was performed in subsets of tumors from responders and non-responders.
Hematopoietic growth factors or blood transfusions were allowed at the investigator's discretion, but not prior to the first dose. Other supportive care (antiemetics, anti-diarrheal medications, or bone-stabilizing agents) were allowed as medically needed.
Additional secondary objectives included assessment of pharmacokinetics and immunogenicity, which were previously reported by Ocean and colleagues (Ocean et al., 2017, Cancer 123:3843-54). Safety evaluations included adverse events (AEs), serious adverse events (SAEs), laboratory safety evaluations, vital signs, physical examinations, and 12-lead electrocardiograms (ECG; performed at baseline, after completion of the infusion on day 1 of every even-numbered treatment cycle, at the end of treatment, and at the end of the study). AEs were graded according to the National Cancer Institute Common Terminology Criteria for Adverse Events, version 4.0.
The data cut-off date for this analysis was Sep. 1, 2018. ORR and CBR were calculated with 95% confidence intervals estimated by the Clopper-Pearson method (Clopper & Pearson, 1934, Biometrika 26:404-13). PFS, OS, and time-to-event endpoints were analyzed by the Kaplan-Meier method, with medians and corresponding 95% confidence intervals determined by the Brookmeyer and Crowley method with log-log transformation. Descriptive statistics were used to characterize AEs. Fischer's exact test was applied to a matrix of pathway-associated gene counts of mutated and wild type phenotypes between responders and non-responders to identify pathways enriched in either of the two response groups. P-values for single sample GSEA (ssGSEA) enrichment score differences between the responder and non-responder patient groups were obtained from the Mann-Whitney statistical test.

[2] = system: patients with metastatic TNBC; test: Phase I/II trial (NCT01631552), metastatic TNBC: adverse events; assay type: in vivo, human; conditions: N = 108
Text: Patients with relapsed/refractory TNBC who had previously failed at at least one prior line of therapy were enrolled in a single-arm, multicenter trial (Bardia et al., 2019, N Engl J Med 380:741-51). The present study reports on 108 patients who had failed at least two prior lines of therapy (median three prior therapies) (Bardia et al., 2019, N Engl J Med 380:741-51). […] For severe treatment-related adverse events, a 25% dose reduction was allowed after the first occurrence, 50% after the second and discontinuation after the third. Of the 108 patients, 107 were female and 1 was male, with a median age of 55. Prior therapies included treatment with taxanes (98%), anthracyclines (86%), platinum agents (69%), gemcitabine (55%), eribulin (45%) and checkpoint inhibitors (17%). Tumor staging was performed by computed tomography (CT) and MRI at baseline, followed up at 8 week intervals from the start of treatment until disease progression.

[3] = mUC, N = 45, regardless of causality
[4] = mUC, N = 45, listed as Sacituzumab Govitecan

## sacituzumab govitecan
[1]; days 1 and 8 every 21 days, intravenous
  Maximum tolerated dose: 10 mg/kg
[1]; mUC, 18 of 45
  Patients with dose reductions: 40%
[1]; mUC, N = 45
  AEs leading to death or treatment-related deaths: no treatment-related deaths were reported
  Anemia, grade ≥3: 13%
  Diarrhea, grade ≥3: 9%
  Discontinued for treatment-related AE, %: (11.1) %
  Fatigue, grade ≥3: 9%
  Febrile neutropenia, grade ≥3: 7%
  Hypophosphatemia, grade ≥3: 11%
  Neutropenia, grade ≥3: 38%
  Peripheral neuropathy or cardiovascular AEs of grade 3 or higher: no cases
[1]; [3]
  Alopecia, Any Grade, % of patients: (40.0) %
  Alopecia, Any Grade, No. of patients: 18
  Alopecia, Grade 3, No. of patients: 0
  Alopecia, Grade 4, No. of patients: 0
  Anemia, Any Grade, % of patients: (33.3) %
  Anemia, Any Grade, No. of patients: 15
  Anemia, Grade 3, % of patients: (13.3) %
  Anemia, Grade 3, No. of patients: 6
  Anemia, Grade 4, No. of patients: 0
  Any adverse event, Any Grade, % of patients: (100) %
  Any adverse event, Any Grade, No. of patients: 45
  Any adverse event, Grade 3, % of patients: (55.6) %
  Any adverse event, Grade 3, No. of patients: 25
  Any adverse event, Grade 4, % of patients: 17.8%
  Any adverse event, Grade 4, No. of patients: 8
  Back pain, Any Grade, % of patients: (22.2) %
  Back pain, Any Grade, No. of patients: 10
  Back pain, Grade 3, No. of patients: 0
  Back pain, Grade 4, No. of patients: 0
  Constipation, Any Grade, % of patients: (44.4) %
  Constipation, Any Grade, No. of patients: 20
  Constipation, Grade 3, No. of patients: 0
  Constipation, Grade 4, No. of patients: 0
  Cough, Any Grade, % of patients: (31.1) %
  Cough, Any Grade, No. of patients: 14
  Cough, Grade 3, No. of patients: 0
  Cough, Grade 4, No. of patients: 0
  Decreased appetite, Any Grade, % of patients: (37.8) %
  Decreased appetite, Any Grade, No. of patients: 17
  Decreased appetite, Grade 3, No. of patients: 0
  Decreased appetite, Grade 4, No. of patients: 0
  Diarrhea, Any Grade, % of patients: (68.9) %
  Diarrhea, Any Grade, No. of patients: 31
  Diarrhea, Grade 3, No. of patients: 4
  Diarrhea, Grade 4, No. of patients: 0
  Dizziness, Any Grade, % of patients: (22.2) %
  Dizziness, Any Grade, No. of patients: 10
  Dizziness, Grade 3, No. of patients: 0
  Dizziness, Grade 4, No. of patients: 0
  Fatigue, Any Grade, % of patients: (57.8) %
  Fatigue, Any Grade, No. of patients: 26
  Fatigue, Grade 3, % of patients: (8.9) %
  Fatigue, Grade 3, No. of patients: 4
  Fatigue, Grade 4, No. of patients: 0
  Febrile neutropenia, Any Grade, % of patients: (6.7) %
  Febrile neutropenia, Any Grade, No. of patients: 3
  Febrile neutropenia, Grade 3, % of patients: (6.7) %
  Febrile neutropenia, Grade 3, No. of patients: 3
  Febrile neutropenia, Grade 4, No. of patients: 0
  Hypophosphatemia, Any Grade, % of patients: (20.0) %
  Hypophosphatemia, Any Grade, No. of patients: 9
  Hypophosphatemia, Grade 3, % of patients: (11.1) %
  Hypophosphatemia, Grade 3, No. of patients: 5
  Hypophosphatemia, Grade 4, No. of patients: 0
  Nausea, Any Grade, % of patients: (66.7) %
  Nausea, Any Grade, No. of patients: 30
  Nausea, Grade 3, % of patients: (2.2) %
  Nausea, Grade 3, No. of patients: 1
  Nausea, Grade 4, No. of patients: 0
  Neutropenia (incl. neutrophil count decreased), Any Grade, % of patients: (51.1) %
  Neutropenia (incl. neutrophil count decreased), Any Grade, No. of patients: 23
  Neutropenia, Grade 3, % of patients: (22.2) %
  Neutropenia, Grade 3, No. of patients: 10
  Neutropenia, Grade 4, % of patients: 15.6%
  Neutropenia, Grade 4, No. of patients: 7
  Pyrexia, Any Grade, % of patients: (24.4) %
  Pyrexia, Any Grade, No. of patients: 11
  Pyrexia, Grade 3, No. of patients: 0
  Pyrexia, Grade 4, No. of patients: 0
  Rash, Any Grade, % of patients: (22.2) %
  Rash, Any Grade, No. of patients: 10
  Rash, Grade 3, No. of patients: 0
  Rash, Grade 4, No. of patients: 0
  Vomiting, Any Grade, % of patients: (31.1) %
  Vomiting, Any Grade, No. of patients: 14
  Vomiting, Grade 3, % of patients: (2.2) %
  Vomiting, Grade 3, No. of patients: 1
  Vomiting, Grade 4, No. of patients: 0
[1]; [4]
  AEs leading to death or treatment-related deaths: No AEs leading to death or treatment-related deaths were reported
  Peripheral neuropathy or cardiovascular AEs of grade 3 or higher: No cases
[2]
  Anemia, % of patients: 50%
  Anemia, grade 3: 11%
  Decreased white blood cell count, grade 4: 3%
  Diarrhea, % of patients: 62%
  Diarrhea, grade 3: 8%
  Fatigue, % of patients: 55%
  Fatigue, grade 3: 8%
  Hyperglycemia, grade 4: 1%
  Nausea, % of patients: 67%
  Nausea, grade 3: 6%
  Neutropenia, % of patients: 64%
  Neutropenia, grade 3: 26%
  Neutropenia, grade 4: 16%
  Vomiting, % of patients: 49%
  Vomiting, grade 3: 6%

From US20210316003A1 (Immunomedics, Inc., priority 2020, published 2021)
